No end group written: not given here. *: point of attachment. OAll = C=CCO*
What was measured:
[1] = target: CXCR4 receptor (human (endogenous in CCRF-CEM)) (UniProt P61073)
[2] = target: CXCR4 receptor (human (endogenous in CCRF-CEM)) (UniProt P61073); remark: listed apart in the source

UniProt P61073, sequence (P61073 whole entry): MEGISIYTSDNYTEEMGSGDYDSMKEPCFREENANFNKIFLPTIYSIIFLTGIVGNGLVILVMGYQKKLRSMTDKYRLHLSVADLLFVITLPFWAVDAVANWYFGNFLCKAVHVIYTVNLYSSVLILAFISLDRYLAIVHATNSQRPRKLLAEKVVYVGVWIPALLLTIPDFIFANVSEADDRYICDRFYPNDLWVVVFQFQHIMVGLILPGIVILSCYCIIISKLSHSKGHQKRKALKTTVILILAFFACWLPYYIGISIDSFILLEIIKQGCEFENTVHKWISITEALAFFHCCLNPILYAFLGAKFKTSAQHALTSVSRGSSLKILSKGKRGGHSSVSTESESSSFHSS

increase of the cAMP level in CCRF-CEM cells in the presence of CXCL12 (100 ng/mL) and forskolin (1 uM); PepE at 1 and 10 uM (20% at 1 uM), dose dependent [1]	migration index of CCRF-CEM cells towards CXCL12 (100 ng/mL) in a Transwell assay; 1.75-fold without peptide [2]	Binder
65%	1.35 fold	YGECPCE-OAll (cysteine pairing not given here) [PepE]
–	1.55 fold	YGECPCK-OAll (cysteine pairing not given here) [PepK]
